According to patent US20230407373A1 (priority 2020, published 2023):
Like-named read-outs stand apart in the source and are kept apart here.

B1: PKP1 (protein, UniProt Q13835 1-747, looked up)
Plakophilin-1: MNHSPLKTALAYECFQDQDNSTLALPSDQKMKTGTSGRQRVQEQVMMTVKRQKSKSSQSSTLSHSNRGSMYDGLADNYNYGTTSRSSYYSKFQAGNGSWGYPIYNGTLKREPDNRRFSSYSQMENWSRHYPRGSCNTTGAGSDICFMQKIKASRSEPDLYCDPRGTLRKGTLGSKGQKTTQNRYSFYSTCSGQKAIKKCPVRPPSCASKQDPVYIPPISCNKDLSFGHSRASSKICSEDIECSGLTIPKAVQYLSSQDEKYQAIGAYYIQHTCFQDESAKQQVYQLGGICKLVDLLRSPNQNVQQAAAGALRNLVFRSTTNKLETRRQNGIREAVSLLRRTGNAEIQKQLTGLLWNLSSTDELKEELIADALPVLADRVIIPFSGWCDGNSNMSREVVDPEVFFNATGCLRKRLGMRELLALVPQRATSSRVNLSSADAGRQTMRNYSGLIDSLMAYVQNCVAASRCDDKSVENCMCVLHNLSYRLDAEVPTRYRQLEYNARNAYTEKSSTGCFSNKSDKMMNNNYDCPLPEEETNPKGSGWLYHSDAIRTYLNLMGKSKKDATLEACAGALQNLTASKGLMSSGMSQLIGLKEKGLPQIARLLQSGNSDVVRSGASLLSNMSRHPLLHRVMGNQVFPEVTRLLTSHTGNTSNSEDILSSACYTVRNLMASQPQLAKQYFSSSMLNNIINLCRSSASPKAAEAARLLLSDMWSSKELQGVLRQQGFDRNMLGTLAGANSLRNFTSRF
B2: BAZ1B (protein, UniProt Q9UIG0 1-1483, looked up)
Tyrosine-protein kinase BAZ1B: MAPLLGRKPFPLVKPLPGEEPLFTIPHTQEAFRTREEYEARLERYSERIWTCKSTGSSQLTHKEAWEEEQEVAELLKEEFPAWYEKLVLEMVHHNTASLEKLVDTAWLEIMTKYAVGEECDFEVGKEKMLKVKIVKIHPLEKVDEEATEKKSDGACDSPSSDKENSSQIAQDHQKKETVVKEDEGRRESINDRARRSPRKLPTSLKKGERKWAPPKFLPHKYDVKLQNEDKIISNVPADSLIRTERPPNKEIVRYFIRHNALRAGTGENAPWVVEDELVKKYSLPSKFSDFLLDPYKYMTLNPSTKRKNTGSPDRKPSKKSKTDNSSLSSPLNPKLWCHVHLKKSLSGSPLKVKNSKNSKSPEEHLEEMMKMMSPNKLHTNFHIPKKGPPAKKPGKHSDKPLKAKGRSKGILNGQKSTGNSKSPKKGLKTPKTKMKQMTLLDMAKGTQKMTRAPRNSGGTPRTSSKPHKHLPPAALHLIAYYKENKDREDKRSALSCVISKTARLLSSEDRARLPEELRSLVQKRYELLEHKKRWASMSEEQRKEYLKKKREELKKKLKEKAKERREKEMLERLEKQKRYEDQELTGKNLPAFRLVDTPEGLPNTLFGDVAMVVEFLSCYSGLLLPDAQYPITAVSLMEALSADKGGFLYLNRVLVILLQTLLQDEIAEDYGELGMKLSEIPLTLHSVSELVRLCLRRSDVQEESEGSDTDDNKDSAAFEDNEVQDEFLEKLETSEFFELTSEEKLQILTALCHRILMTYSVQDHMETRQQMSAELWKERLAVLKEENDKKRAEKQKRKEMEAKNKENGKVENGLGKTDRKKEIVKFEPQVDTEAEDMISAVKSRRLLAIQAKKEREIQEREMKVKLERQAEEERIRKHKAAAEKAFQEGIAKAKLVMRRTPIGTDRNHNRYWLFSDEVPGLFIEKGWVHDSIDYRFNHHCKDHTVSGDEDYCPRSKKANLGKNASMNTQHGTATEVAVETTTPKQGQNLWFLCDSQKELDELLNCLHPQGIRESQLKERLEKRYQDIIHSIHLARKPNLGLKSCDGNQELLNFLRSDLIEVATRLQKGGLGYVEETSEFEARVISLEKLKDFGECVIALQASVIKKFLQGFMAPKQKRRKLQSEDSAKTEEVDEEKKMVEEAKVASALEKWKTAIREAQTFSRMHVLLGMLDACIKWDMSAENARCKVCRKKGEDDKLILCDECNKAFHLFCLRPALYEVPDGEWQCPACQPATARRNSRGRNYTEESASEDSEDDESDEEEEEEEEEEEEEDYEVAGLRLRPRKTIRGKHSVIPPAARSGRRPGKKPHSTRRSQPKAPPVDDAEVDELVLQTKRSSRRQSLELQKCEEILHKIVKYRFSWPFREPVTRDEAEDYYDVITHPMDFQTVQNKCSCGSYRSVQEFLTDMKQVFTNAEVYNCRGSHVLSCMVKTEQCLVALLHKHLPGHPYVRRKRKKFPDRLAEDEGDSEPEAVGQSRGRRQKK
B3: HNRNPA261 (protein, UniProt P22626 1-353, looked up)
Heterogeneous nuclear …: MEKTLETVPLERKKREKEQFRKLFIGGLSFETTEESLRNYYEQWGKLTDCVVMRDPASKRSRGFGFVTFSSMAEVDAAMAARPHSIDGRVVEPKRAVAREESGKPGAHVTVKKLFVGGIKEDTEEHHLRDYFEEYGKIDTIEIITDRQSGKKRGFGFVTFDDHDPVDKIVLQKYHTINGHNAEVRKALSRQEMQEVQSSRSGRGGNFGFGDSRGGGGNFGPGPGSNFRGGSDGYGSGRGFGDGYNGYGGGPGGGNFGGSPGYGGGRGGYGGGGPGYGNQGGGYGGGYDNYGGGNYGSGNYNDFGNYNQQPSNYGPMKSGNFGGSRNMGGPYGGGNYGPGGSGGSGGYGGRSRY
B4: DHX8 (protein, UniProt Q14562 1-1220, looked up)
ATP-dependent RNA helicase …: MAVAVAMAGALIGSEPGPAEELAKLEYLSLVSKVCTELDNHLGINDKDLAEFVISLAEKNTTFDTFKASLVKNGAEFTDSLISNLLRLIQTMRPPAKPSTSKDPVVKPKTEKEKLKELFPVLCQPDNPSVRTMLDEDDVKVAVDVLKELEALMPSAAGQEKQRDAEHRDRTKKKKRSRSRDRNRDRDRDRERNRDRDHKRRHRSRSRSRSRTRERNKVKSRYRSRSRSQSPPKDRKDRDKYGERNLDRWRDKHVDRPPPEEPTIGDIYNGKVTSIMQFGCFVQLEGLRKRWEGLVHISELRREGRVANVADVVSKGQRVKVKVLSFTGTKTSLSMKDVDQETGEDLNPNRRRNLVGETNEETSMRNPDRPTHLSLVSAPEVEDDSLERKRLTRISDPEKWEIKQMIAANVLSKEEFPDFDEETGILPKVDDEEDEDLEIELVEEEPPFLRGHTKQSMDMSPIKIVKNPDGSLSQAAMMQSALAKERRELKQAQREAEMDSIPMGLNKHWVDPLPDAEGRQIAANMRGIGMMPNDIPEWKKHAFGGNKASYGKKTQMSILEQRESLPIYKLKEQLVQAVHDNQILIVIGETGSGKTTQITQYLAEAGYTSRGKIGCTQPRRVAAMSVAKRVSEEFGCCLGQEVGYTIRFEDCTSPETVIKYMTDGMLLRECLIDPDLTQYAIIMLDEAHERTIHTDVLFGLLKKTVQKRQDMKLIVTSATLDAVKFSQYFYEAPIFTIPGRTYPVEILYTKEPETDYLDASLITVMQIHLTEPPGDILVFLTGQEEIDTACEILYERMKSLGPDVPELIILPVYSALPSEMQTRIFDPAPPGSRKVVIATNIAETSLTIDGIYYVVDPGFVKQKVYNSKTGIDQLVVTPISQAQAKQRAGRAGRTGPGKCYRLYTERAYRDEMLTTNVPEIQRTNLASTVLSLKAMGINDLLSFDFMDAPPMETLITAMEQLYTLGALDDEGLLTRLGRRMAEFPLEPMLCKMLIMSVHLGCSEEMLTIVSMLSVQNVFYRPKDKQALADQKKAKFHQTEGDHLTLLAVYNSWKNNKFSNPWCYENFIQARSLRRAQDIRKQMLGIMDRHKLDVVSCGKSTVRVQKAICSGFFRNAAKKDPQEGYRTLIDQQVVYIHPSSALFNRQPEWVVYHELVLTTKEYMREVTTIDPRWLVEFAPAFFKVSDPTKLSKQKKQQRLEPLYNRYEEPNAWRISRAFRRR
B5: PATL1 (protein, UniProt Q86TB9 1-770, looked up)
Protein PAT1 homolog 1: MFRYESLEDCPLDEDEDAFQGLGEEDEEIDQFNDDTFGSGAVDDDWQEAHERLAELEEKLPVAVNEQTGNGERDEMDLLGDHEENLAERLSKMVIENELEDPAIMRAVQTRPVLQPQPGSLNSSIWDGSEVLRRIRGPLLAQEMPTVSVLEYALPQRPPQGPEDDRDLSERALPRRSTSPIIGSPPVRAVPIGTPPKQMAVPSFTQQILCPKPVHVRPPMPPRYPAPYGERMSPNQLCSVPNSSLLGHPFPPSVPPVLSPLQRAQLLGGAQLQPGRMSPSQFARVPGFVGSPLAAMNPKLLQGRVGQMLPPAPGFRAFFSAPPSATPPPQQHPPGPGPHLQNLRSQAPMFRPDTTHLHPQHRRLLHQRQQQNRSQHRNLNGAGDRGSHRSSHQDHLRKDPYANLMLQREKDWVSKIQMMQLQSTDPYLDDFYYQNYFEKLEKLSAAEEIQGDGPKKERTKLITPQVAKLEHAYKPVQFEGSLGKLTVSSVNNPRKMIDAVVTSRSEDDETKEKQVRDKRRKTLVIIEKTYSLLLDVEDYERRYLLSLEEERPALMDDRKHKICSMYDNLRGKLPGQERPSDDHFVQIMCIRKGKRMVARILPFLSTEQAADILMTTARNLPFLIKKDAQDEVLPCLLSPFSLLLYHLPSVSITSLLRQLMNLPQSAATPALSNPHLTAVLQNKFGLSLLLILLSRGEDLQSSDPATESTQNNQWTEVMFMATRELLRIPQAALAKPISIPTNLVSLFSRYVDRQKLNLLETKLQLVQGIR
B6: NHP2 (protein, UniProt Q9NX24 1-153, looked up)
H/ACA ribonucleoprotein …: MTKIKADPDGPEAQAEACSGERTYQELLVNQNPIAQPLASRRLTRKLYKCIKKAVKQKQIRRGVKEVQKFVNKGEKGIMVLAGDTLPIEVYCHLPVMCEDRNLPYVYIPSKTDLGAAAGSKRPTCVIMVKPHEEYQEAYDECLEEVQSLPLPL
B7: TRIM28 (protein, UniProt Q13263 2-835, looked up)
Transcription intermediary …: AASAAAASAAAASAASGSPGPGEGSAGGEKRSTAPSAAASASASAAASSPAGGGAEALELLEHCGVCRERLRPEREPRLLPCLHSACSACLGPAAPAAANSSGDGGAAGDGTVVDCPVCKQQCFSKDIVENYFMRDSGSKAATDAQDANQCCTSCEDNAPATSYCVECSEPLCETCVEAHQRVKYTKDHTVRSTGPAKSRDGERTVYCNVHKHEPLVLFCESCDTLTCRDCQLNAHKDHQYQFLEDAVRNQRKLLASLVKRLGDKHATLQKSTKEVRSSIRQVSDVQKRVQVDVKMAILQIMKELNKRGRVLVNDAQKVTEGQQERLERQHWTMTKIQKHQEHILRFASWALESDNNTALLLSKKLIYFQLHRALKMIVDPVEPHGEMKFQWDLNAWTKSAEAFGKIVAERPGTNSTGPAPMAPPRAPGPLSKQGSGSSQPMEVQEGYGFGSGDDPYSSAEPHVSGVKRSRSGEGEVSGLMRKVPRVSLERLDLDLTADSQPPVFKVFPGSTTEDYNLIVIERGAAAAATGQPGTAPAGTPGAPPLAGMAIVKEEETEAAIGAPPTATEGPETKPVLMALAEGPGAEGPRLASPSGSTSSGLEVVAPEGTSAPGGGPGTLDDSATICRVCQKPGDLVMCNQCEFCFHLDCHLPALQDVPGEEWSCSLCHVLPDLKEEDGSLSLDGADSTGVVAKLSPANQRKCERVLLALFCHEPCRPLHQLATDSTFSLDQPGGTLDLTLIRARLQEKLSPPYSSPQEFAQDVGRMFKQFNKLTEDKADVQSIIGLQRFFETRMNEAFGDTKFSAVLVEPPPMSLPGAGLSSQELSGGPGDGP

System: HCoV-OC43 gRNA and sgRNA
Assay type: binding
Details: for target (unweighted spectral count, OC43 Probe II capture): tested against no-probe control, FDR<10%; for target (unweighted spectral count, OC43 Probe II) / background (unweighted spectral count, no-probe control): type n_48_v, 48 hpi; for target (unweighted spectral count, OC43 Probe II): OC43 Probe II capture on infected cells; for background (unweighted spectral count, no-probe control): no-probe control on infected cells

Molecule	target (unweighted spectral count, OC43 Probe II capture) (24 hpi, type n_24_v)	target (unweighted spectral count, OC43 Probe II capture) (36 hpi, type n_36_v)	target (unweighted spectral count, OC43 Probe II)	background (unweighted spectral count, no-probe control)
B1	4			
B2	4			
B3		70		
B4		27		
B5		6		
B6		6	6	1
B7		13	6	1
